± gives the standard deviation of the averaged measurements.
B1: library; numbered along this chain (parent)
chain: MNIQIGELAKRTACPVVTIRFYEQEGLLPPPGRSRGNFRLYGEEHVERLQFIRHCRSLDMPLSDVRTLLSYRKRPDQDCGEVNMLLDEHIRQVESRIGALLELKHHLVELREACSGARPAQSCGILQGLSDCVCDTRGTTAHPSD

Key:
[1] = variants of: B1; experiment: sfGFP reporter fluorescence (15 h) (µM FITC); higher = higher leak; conditions: library round: Round 0; ligand: none
How it was run: (§1)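 Values are endpoint sfGFP fluorescence given as µM FITC equivalents. Fluorescence was read at 485/528 nm on a Synergy Neo2, and FITC standard curves were prepared in 50 mM sodium borate pH 8.5. Reactions of 1 μL combined BL21 Star (DE3) PANOx-SP extract, pPbrR-sfGFP reporter, 30 μg/mL GamS and linear PbrR templates (PCR-made, Echo-normalized to 5 nM), with 1 µM lead chloride, 30 µM zinc acetate or no metal, for 15 hr at 30 °C.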

[2] = variants of: B1; experiment: sfGFP reporter fluorescence (15 h) (µM FITC); higher = stronger transcriptional activation; conditions: library round: Round 0
How it was run: as §1

Row | Variant | sfGFP reporter fluorescence [1] | sfGFP reporter fluorescence ([2]; ligand: 1 µM Pb) | sfGFP reporter fluorescence ([2]; ligand: 30 µM Zn)
1 | MNIQIGELAKRTACPVVTICFYEQEGLLPPPGRSRGNFRLYGEEHVERLQFIRHCRSLDMPLSDVRTLLSYRKRPDQDCGEVNMLLDEHIRQVESRIGALLELKHHLVELREACSGARPAQSCGILQGLSDCVCDTRGTTAHPSD [R20C] | 0.063 ± 0.0015 | 0.0618 ± 0.00078 | 0.0634 ± 0.001
2 | MNIQIGELAKRTACPVVTIDFYEQEGLLPPPGRSRGNFRLYGEEHVERLQFIRHCRSLDMPLSDVRTLLSYRKRPDQDCGEVNMLLDEHIRQVESRIGALLELKHHLVELREACSGARPAQSCGILQGLSDCVCDTRGTTAHPSD [R20D] | 0.0614 ± 0.0023 | 0.0616 ± 0.0015 | 0.0687 ± 0.0013
3 | MNIQIGELAKRTACPVVTIEFYEQEGLLPPPGRSRGNFRLYGEEHVERLQFIRHCRSLDMPLSDVRTLLSYRKRPDQDCGEVNMLLDEHIRQVESRIGALLELKHHLVELREACSGARPAQSCGILQGLSDCVCDTRGTTAHPSD [R20E] | 0.0603 ± 0.0023 | 0.0616 ± 0.0015 | 0.06175 ± 0.00026
4 | MNIQIGELAKRTACPVVTIFFYEQEGLLPPPGRSRGNFRLYGEEHVERLQFIRHCRSLDMPLSDVRTLLSYRKRPDQDCGEVNMLLDEHIRQVESRIGALLELKHHLVELREACSGARPAQSCGILQGLSDCVCDTRGTTAHPSD [R20F] | 0.0566 ± 0.0013 | 0.05846 ± 0.00026 | 0.0581 ± 0.0039
5 | MNIQIGELAKRTACPVVTIGFYEQEGLLPPPGRSRGNFRLYGEEHVERLQFIRHCRSLDMPLSDVRTLLSYRKRPDQDCGEVNMLLDEHIRQVESRIGALLELKHHLVELREACSGARPAQSCGILQGLSDCVCDTRGTTAHPSD [R20G] | 0.05864 ± 0.00052 | 0.0563 ± 0.0018 | 0.0625 ± 0.0034
6 | MNIQIGELAKRTACPVVTIHFYEQEGLLPPPGRSRGNFRLYGEEHVERLQFIRHCRSLDMPLSDVRTLLSYRKRPDQDCGEVNMLLDEHIRQVESRIGALLELKHHLVELREACSGARPAQSCGILQGLSDCVCDTRGTTAHPSD [R20H] | 0.0618 ± 0.0044 | 0.0647 ± 0.0018 | 0.1048 ± 0.001
7 | MNIQIGELAKRTACPVVTIIFYEQEGLLPPPGRSRGNFRLYGEEHVERLQFIRHCRSLDMPLSDVRTLLSYRKRPDQDCGEVNMLLDEHIRQVESRIGALLELKHHLVELREACSGARPAQSCGILQGLSDCVCDTRGTTAHPSD [R20I] | 0.0585 ± 0.00078 | 0.06285 ± 0.00026 | 0.142 ± 0.0057

— the supplement of paper PMC12783771
